# Measured values taken from the Immune Epitope Database (IEDB).
# Legend:
# [1] = target: HLA-B*15:03; assay: IEDB peptide-MHC binding, purified MHC/competitive/radioactivity; filed as Kd, often an IC50 or EC50 that approximates it; ≥ and ≤ were set here for values at or beyond the usual limits of such assays
# [2] = target: HLA-B*44:02; assay: as above
# [3] = target: HLA-B*44:03; assay: as above
# [4] = target: HLA-B*51:01; assay: IEDB peptide-MHC binding, purified MHC/competitive/fluorescence; filed as Kd, often an IC50 or EC50 that approximates it; ≥ and ≤ were set here for values at or beyond the usual limits of such assays; details: source organism: Entamoeba histolytica HM-1:IMSS
# [5] = target: HLA-A*02:01; assay: IEDB peptide-MHC binding, purified MHC/competitive/fluorescence; ≥ and ≤ were set here for values at or beyond the usual limits of such assays; details: source organism: Zaire ebolavirus
# [6] = target: HLA-A*24:02; assay: as above
# [7] = target: HLA-A*68:02; assay: IEDB peptide-MHC binding, purified MHC/competitive/radioactivity; filed as Kd, often an IC50 or EC50 that approximates it; ≥ and ≤ were set here for values at or beyond the usual limits of such assays
# [8] = target: HLA-A*32:01; assay: as above; details: source organism: Vaccinia virus WR
# [9] = target: HLA-A*24:03; assay: IEDB peptide-MHC binding, purified MHC/direct/fluorescence; filed as Kd, often an IC50 or EC50 that approximates it; ≥ and ≤ were set here for values at or beyond the usual limits of such assays
# [10] = target: HLA-B*51:01; assay: IEDB peptide-MHC binding, purified MHC/competitive/radioactivity; filed as Kd, often an IC50 or EC50 that approximates it; ≥ and ≤ were set here for values at or beyond the usual limits of such assays
# [11] = target: HLA-B*08:01; assay: as above; details: source organism: Dengue virus 2 Jamaica/1409/1983
# [12] = target: HLA-B*53:01; assay: as above
# [13] = target: HLA-B*07:02; assay: as above
# [14] = target: HLA-B*40:01; assay: as above
# [15] = target: HLA-B*15:01; assay: IEDB peptide-MHC binding, purified MHC/competitive/fluorescence; filed as Kd, often an IC50 or EC50 that approximates it; ≥ and ≤ were set here for values at or beyond the usual limits of such assays
# [16] = target: HLA-A*02:06; assay: IEDB peptide-MHC binding, purified MHC/competitive/radioactivity; filed as Kd, often an IC50 or EC50 that approximates it; ≥ and ≤ were set here for values at or beyond the usual limits of such assays; details: source organism: Dengue virus 2 Jamaica/1409/1983
# [17] = source organism: Vaccinia virus WR
# [18] = source organism: Dengue virus 4 Philippines/H241/1956
# [19] = source organism: Zaire ebolavirus
# [20] = source organism: Dengue virus 1 Brazil/97-11/1997
# [21] = source organism: Vaccinia virus Copenhagen
# [22] = source organism: Dengue virus 2 Jamaica/1409/1983
# [23] = source organism: Dengue virus 3 Sri Lanka/1266/2000
sequence,measurement,setting,value
FLVIAINAM,Kd,[1]; [17],440 nM
SECPNERRAW,Kd,[2]; [18],74.7 nM
same,Kd,[3]; [18],56.5 nM
LSYGPAFIV,Kd,[4],≥ 20000 nM
YVQLESRFT,IC50,[5],39300 nM
same,IC50,[6]; [19],≥ 203000 nM
MTATPPGSV,Kd,[7]; [20],6.2 nM
NELNYVLWE,Kd,[3]; [18],159 nM
QKIWMAPSL,IC50,[5],14500 nM
same,IC50,[6]; [19],≥ 92400 nM
LLVQRVTSV,Kd,[1]; [21],285 nM
QVFGAIYGA,Kd,[7]; [22],1.97 nM
WKVLSIMAF,Kd,[1]; [21],9.29 nM
LLYMFPNLF,Kd,[8],89.7 nM
same,Kd,[1]; [17],0.109 nM
FFPMVTDAW,Kd,[9]; source organism: Vibrio parahaemolyticus,≤ 1 nM
GPLKLFMAL,Kd,[10]; [22],≥ 77400 nM
same,Kd,[11],19.3 nM
same,Kd,[12]; [22],1010 nM
same,Kd,[13]; [22],2.35 nM
FTVHADTGCA,Kd,[7]; [18],134 nM
SEFQIYKKS,Kd,[3]; [22],825 nM
RYGWSGAVF,Kd,[9]; source organism: Shigella sonnei Ss046,≤ 1 nM
AGIAWIPYF,IC50,[6]; source organism: Sudan ebolavirus,2640 nM
LEKKITQWL,Kd,[2]; [23],331 nM
same,Kd,[14]; [23],191 nM
LEVNNPTPF,Kd,[15]; source organism: Yersinia pestis,98 nM
PPVNDLKYSW,Kd,[12]; [18],96.8 nM
SKSRRLNLF,Kd,[1]; [17],2.36 nM
EPGQLKLNW,Kd,[12]; [22],33.1 nM
AETQHGTIV,Kd,[3]; [22],225 nM
same,Kd,[14]; [22],15.1 nM
NTSMAMTCI,Kd,[7]; [18],238 nM
KKNNRVLCF,Kd,[1]; [17],1.59 nM
TEAKQPATL,Kd,[14]; [22],18.6 nM
LWFNYLFGG,IC50,[6]; source organism: Variola virus,57800 nM
SPGKFWNTTI,Kd,[13]; [20],5.6 nM
LSIPATLFVW,Kd,[12]; source organism: Dengue virus 1 Singapore/S275/1990,92.8 nM
NTPEGIIPA,Kd,[7]; [20],9.22 nM
MEGVFHTMW,Kd,[2]; [18],17.4 nM
same,Kd,[3]; [18],2.58 nM
EPHWIAASI,Kd,[10]; [20],172 nM
same,Kd,[12]; [20],333 nM
same,Kd,[13]; [20],267 nM
MEFIDGISLG,Kd,[14]; [18],137 nM
GTFHTMWHV,Kd,[7]; [22],12.2 nM
same,Kd,[16],7.33 nM
IMSLFSTSA,Kd,[1]; [17],7.67 nM
TQGYFPDWQNY,Kd,[15]; source organism: Human immunodeficiency virus 1,84.6 nM
TEEIAVQNW,Kd,[2]; [22],15.4 nM
same,Kd,[3]; [22],36.8 nM
GEWKEGEEV,Kd,[2]; [22],16300 nM
same,Kd,[14]; [22],295 nM
KEYTYPDSL,IC50,[6]; [19],≥ 184000 nM
QESADSFLL,IC50,[6]; [19],≥ 138000 nM
IKYMIGNFM,Kd,[1]; [17],2.15 nM
FLFLNINHY,Kd,[1]; [17],6.46 nM
AENTNTSKS,IC50,[5],≥ 187000 nM
same,IC50,[6]; [19],≥ 534000 nM
LTVAANEMGL,Kd,[7]; [20],198 nM
SLIEVKTCLW,Kd,[3]; [18],2330 nM
LSVSLVLVGV,Kd,[7]; [22],12.2 nM
same,Kd,[16],75.5 nM
IFVIDNVHTW,Kd,[12]; [18],500 nM
LTAIANQATV,Kd,[7]; [22],18.8 nM
